According to the supplement of paper PMC10724198:
± gives the standard deviation of the averaged measurements.

Tested on: Saccharomyces cerevisiae
Test: protein stability index of tFT-peptide fusion (C-terminal peptide) (PSI (0-1 scale)); higher = more stable (slower turnover)
Details: temperature: 30 C
Method: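 MPS profiling in S. cerevisiae of the yeast C-terminome library: the last 12 aa of each annotated ORF are fused to the C-terminus of a sfGFP-mCherry timer, after a GGGS linker. Cells are FACS-sorted into 8 mCherry/sfGFP bins and deep-sequenced. PSI runs from 0 (unstable) to 1 (stable); wild type and das1Δ backgrounds, two technical replicates each.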

[1] = genetic background: das1 deletion

Sequence	protein stability index [1]	protein stability index (genetic background: wild type)
LIFQRKYTAKEF [DTR1 C-terminal 12 aa]	0.6863 ± 0.004	0.678 ± 0.035
LIHNFNSRYCHE [LEE1 C-terminal 12 aa]	0.725 ± 0.0078	0.691 ± 0.0088
LINGTRIMNSIS [VPS33 C-terminal 12 aa]	0.684 ± 0.01	0.532 ± 0.0095
LISFGMGNTQVI [CLN2 C-terminal 12 aa]	0.699 ± 0.031	0.6846 ± 0.004
LITSHCCYWNKR [YBL039C-A C-terminal 12 aa]	0.6928 ± 0.0067	0.52 ± 0.033
LKKIATKFWGKH [TRK2 C-terminal 12 aa]	0.697 ± 0.016	0.714 ± 0.066
LKNYLEAQIAKK [YPR097W C-terminal 12 aa]	0.692 ± 0.03	0.721 ± 0.016
LKPWEGRIYLVK [MAL12 C-terminal 12 aa]	0.6483 ± 0.0018	0.697 ± 0.022
LKQKALVAAKQS [YJR015W C-terminal 12 aa]	0.679 ± 0.024	0.319 ± 0.03
LKSIYTSERITI [RAD61 C-terminal 12 aa]	0.707 ± 0.04	0.667 ± 0.025
LKTPQEYESKAK [BOL1 C-terminal 12 aa]	0.702 ± 0.02	0.753 ± 0.069
LLAKQLLLLLLR [YER079C-A C-terminal 12 aa]	0.33 ± 0.018	0.342 ± 0.0063
LLEDEDRTYNYT [KCH1 C-terminal 12 aa]	0.6892 ± 0.0059	0.718 ± 0.069
LLHYQSWHFSIY [YJL007C C-terminal 12 aa]	0.707 ± 0.035	0.407 ± 0.026
LLLAGRKLSLDK [ARK1 C-terminal 12 aa]	0.694 ± 0.016	0.715 ± 0.023
LLLQFPPYLPHD [LAG2 C-terminal 12 aa]	0.75 ± 0.019	0.7442 ± 0.0048
LLPLIYLINKSL [YMR013C-A C-terminal 12 aa]	0.622 ± 0.014	0.199 ± 0.022
LLRKHVFPSVPK [VFA1 C-terminal 12 aa]	0.732 ± 0.026	0.738 ± 0.031
LLSAILDPSKSK [MED11 C-terminal 12 aa]	0.709 ± 0.021	0.699 ± 0.046
LLSLPSSTLTKS [YIL068W-A C-terminal 12 aa]	0.703 ± 0.025	0.702 ± 0.0086
LLTYFRKHVKDT [SCC2 C-terminal 12 aa]	0.714 ± 0.043	0.572 ± 0.054

Sequence	protein stability index [1]	protein stability index (genetic background: wild type)
LLYPVKSESSTV [PDR16 C-terminal 12 aa]	0.68 ± 0.013	0.676 ± 0.01
LMILGNFMPILN [ERT1 C-terminal 12 aa]	0.6909 ± 0.0037	0.5655 ± 0.0049
LPFQKLKHLIKK [MRX11 C-terminal 12 aa]	0.707 ± 0.031	0.706 ± 0.046
LPLYYVYQCDMI [YDR094W C-terminal 12 aa]	0.6642 ± 0.0046	0.643 ± 0.052
LPVSDSRCYYIL [YML031C-A C-terminal 12 aa]	0.6921 ± 0.0021	0.343 ± 0.013
LPYRMLIRMYPV [YEL014C C-terminal 12 aa]	0.5232 ± 0.0025	0.5345 ± 0.0047
LQTMSFLMNHLI [YJL032W C-terminal 12 aa]	0.6597 ± 0.0011	0.23 ± 0.042
LRLKGNAKAPGA [CLC1 C-terminal 12 aa]	0.70418 ± 0.00015	0.729 ± 0.012
LRTTSSMEKKLN [ALG3 C-terminal 12 aa]	0.7064 ± 0.00072	0.205 ± 0.0049
LSADGIYTAVPN [PAU17 C-terminal 12 aa]	0.695 ± 0.018	0.702 ± 0.011
LSAETGIRGEGE [YIL100W C-terminal 12 aa]	0.6849 ± 0.0034	0.71 ± 0.029
LSKDGIYTAVPN [PAU23 C-terminal 12 aa]	0.6917 ± 0.0018	0.702 ± 0.0078
LSKKDYSIDSIE [TPO3 C-terminal 12 aa]	0.726 ± 0.011	0.6981 ± 0.0023
LSKMYIGWLPFW [MEC1 C-terminal 12 aa]	0.7227 ± 0.0057	0.6826 ± 0.002
LSLTLVSIIKTA [COG2 C-terminal 12 aa]	0.618 ± 0.025	0.193 ± 0.0064
LSNQNSPLFLYH [YHR175W-A C-terminal 12 aa]	0.7053 ± 0.0058	0.705 ± 0.015
LSPSYSCRYHGR [YPL152W-A C-terminal 12 aa]	0.7126 ± 0.0044	0.6832 ± 0.004
LSVIYMGWSPFY [TEL1 C-terminal 12 aa]	0.716 ± 0.018	0.773 ± 0.032
LSVTLGEGKYHH [CSG2 C-terminal 12 aa]	0.685 ± 0.03	0.686 ± 0.034
LTVLCVILGYVL [UTR2 C-terminal 12 aa]	0.5761 ± 0.00066	0.645 ± 0.048
